# Source: patent publication US20250000976A1 (NATIONAL RESEARCH COUNCIL OF CANADA, published 2025)
# T1: full-length hBCMA-ECD displayed on yeast (Aga2-HA-(hBCMA)-MYC) (human, UniProt Q02223 1-54)
# T1 construct: range 1-54; stands here as the molecule on which the mapped regions are counted; also called hBCMA ecto-domain (ECD); not shown: Aga2-HA N-terminal fusion partner of the pPNL6 yeast display vector; C-terminal MYC tag
# T1 sequence (looked up): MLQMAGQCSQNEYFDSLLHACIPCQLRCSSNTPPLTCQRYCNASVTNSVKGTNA
# T2: BCMA_B2x Gly6_Ala54 (human, UniProt Q02223)
# T2 construct: limits given in the sample name
# T2 yeast-displayed fusion (looked up): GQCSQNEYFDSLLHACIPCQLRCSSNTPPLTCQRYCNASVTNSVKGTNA
# T3: BCMA_B6x Met1_Ala43 (human, UniProt Q02223)
# T3 construct: limits given in the sample name
# T3 yeast-displayed fusion (looked up): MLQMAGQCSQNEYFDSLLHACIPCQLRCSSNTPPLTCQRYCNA
# T4: BCMA_B7x Met1_Tyr40 (human, UniProt Q02223)
# T4 construct: limits given in the sample name
# T4 yeast-displayed fusion (looked up): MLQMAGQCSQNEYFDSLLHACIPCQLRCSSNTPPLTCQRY
# T5: BCMA_B9x Met1_Asp15 (human, UniProt Q02223)
# T5 construct: limits given in the sample name
# T5 yeast-displayed fusion (looked up): MLQMAGQCSQNEYFD
# T6: hBCMA fragment Gly6-Tyr40 displayed on yeast (Aga2-HA-(hBCMA)-MYC) (human, UniProt Q02223 6-40)
# T6 construct: range 6-40; not shown: Aga2-HA N-terminal fusion partner of the pPNL6 yeast display vector; C-terminal MYC tag
# T6 chain (looked up): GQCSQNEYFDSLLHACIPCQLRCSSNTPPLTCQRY
# T7: hBCMA fragment Gly6-Pro23 displayed on yeast (Aga2-HA-(hBCMA)-MYC) (human, UniProt Q02223 6-23)
# T7 construct: range 6-23; not shown: Aga2-HA N-terminal fusion partner of the pPNL6 yeast display vector; C-terminal MYC tag
# T7 chain (looked up): GQCSQNEYFDSLLHACIP
# T8: BCMA_B17x Ile22_Tyr40 (human, UniProt Q02223)
# T8 construct: limits given in the sample name
# T8 yeast-displayed fusion (looked up): IPCQLRCSSNTPPLTCQRY
# T9: BCMA_B19x Arg27_Ala43 (human, UniProt Q02223)
# T9 construct: limits given in the sample name
# T9 yeast-displayed fusion (looked up): RCSSNTPPLTCQRYCNA
# T10: BCMA_B21x Arg27_Tyr40 (human, UniProt Q02223)
# T10 construct: limits given in the sample name
# T10 yeast-displayed fusion (looked up): RCSSNTPPLTCQRY
# T11: hBCMA-ECD-FC5VHH (human, UniProt Q02223 1-54, biotinylated in vivo ; biotinylated in vivo on the tag of the carrier part, which is not in the letters)
# T11 construct: Made in HEK-293 cells, monomeric SEC fraction; The methods say about 500 RU captured on an SA chip; the results say immobilised on a CM5 chip; also called hBCMA-FC5; human BCMA-ECD; not shown: FC5 VHH carrier, any linker, and the His and biotinylation tags
# T11 sequence: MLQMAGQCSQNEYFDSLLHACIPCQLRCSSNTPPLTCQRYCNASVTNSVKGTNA
# T12: BCMA_B18x Ile22_Tyr40 (C37S) (human, UniProt Q02223)
# T12 construct: limits and substitution as printed in the sample name
# T12 yeast-displayed fusion (looked up): IPCQLRCSSNTPPLTSQRY
# T13: BCMA_B20x Arg27_Ala43 (C41S) (human, UniProt Q02223)
# T13 construct: limits and substitution as printed in the sample name
# T13 yeast-displayed fusion (looked up): RCSSNTPPLTCQRYSNA
# T14: BCMA_B22x Arg27_Tyr40 (C37S) (human, UniProt Q02223)
# T14 construct: limits and substitution as printed in the sample name
# T14 yeast-displayed fusion (looked up): RCSSNTPPLTSQRY
# Experiments:
# [1] = biological target: T1, full-length hBCMA-ECD displayed on …; test: yeast cell ELISA, sample BCMA_B1x Met1_Ala54
# Procedure: (§1) The YSD vector (pPNL6) was from The Pacific Northwest National Laboratory, USA. […] The HRP activity was assayed with substrate TMB (tetramethyl benzidine) according to the manufacture's conditions and read at OD₄₅₀.
# (§2) The assays were performed as described in the Materials and Method, and OD₄₅₀ was measured. Note that OD₄₅₀ reads equal or less than 0.100 were scored as zero for clarity.
# BCMA_B2x Gly6_Ala54 = biological target: T2, BCMA_B2x Gly6_Ala54; test: yeast cell ELISA, sample BCMA_B2x Gly6_Ala54
# Procedure: as §1, §2
# BCMA_B6x Met1_Ala43 = biological target: T3, BCMA_B6x Met1_Ala43; test: yeast cell ELISA, sample BCMA_B6x Met1_Ala43
# Procedure: as §1, §2
# BCMA_B7x Met1_Tyr40 = biological target: T4, BCMA_B7x Met1_Tyr40; test: yeast cell ELISA, sample BCMA_B7x Met1_Tyr40
# Procedure: as §1, §2
# BCMA_B9x Met1_Asp15 = biological target: T5, BCMA_B9x Met1_Asp15; test: yeast cell ELISA, sample BCMA_B9x Met1_Asp15
# Procedure: as §1, §2
# [2] = biological target: T6, hBCMA fragment Gly6-Tyr40 displayed on …; test: yeast cell ELISA, sample BCMA_B11x Gly6_Tyr40
# Procedure: as §1, §2
# [3] = biological target: T7, hBCMA fragment Gly6-Pro23 displayed on …; test: yeast cell ELISA, sample BCMA_B12x Gly6_Pro23
# Procedure: as §1, §2
# BCMA_B17x Ile22_Tyr40 = biological target: T8, BCMA_B17x Ile22_Tyr40; test: yeast cell ELISA, sample BCMA_B17x Ile22_Tyr40
# Procedure: as §1, §2
# BCMA_B19x Arg27_Ala43 = biological target: T9, BCMA_B19x Arg27_Ala43; test: yeast cell ELISA, sample BCMA_B19x Arg27_Ala43
# Procedure: as §1, §2
# BCMA_B21x Arg27_Tyr40 = biological target: T10, BCMA_B21x Arg27_Tyr40; test: yeast cell ELISA, sample BCMA_B21x Arg27_Tyr40
# Procedure: as §1, §2
# hBCMA-ECD-FC5VHH = biological target: T11, hBCMA-ECD-FC5VHH; test: SPR (Biacore T200), VHH 20-500 nM over BCMA-ECD surface, 25 C
# Procedure: For surface Plasmon resonance, 15 selected VHHs were passed though size exclusion columns, Superdex 75 (GE Healthcare), respectively, in 10 mM HEPES, pH 7.4, containing 150 mM NaCl, 3 mM EDTA, monomeric sdAb fractions were collected and protein concentrations were determined by measuring absorbance at 280 nm (A280). Analysis were performed with Biacore T200 instrument (GE Healthcare). All measurements were carried out at 25° C. in 10 mM HEPES, pH 7.4, containing 150 mM NaCl, 3 mM EDTA and 0.005% surfactant P20 (GE Healthcare). Approximately 500 RUs of the recombinant monomeric BCMA-ECD (obtained after SEC purification of the BCMA-ECD-FC5VHH) were captured on SA sensor chip (GE Healthcare) at a flow rate of 5 uL/min. Various concentration of the monomeric VHHs (20-500 nM) were injected over BCMA-ECD surface, respectively using an SA surface as a reference at a flow rate of 40 μL/min. Surfaces were generated by washing with running buffer. Data were analysed with BIAevaluation 4.1 software.
# The monomeric fraction of all 15 VHHs were used for SPR experiment where the human BCMA-ECD or mouse BCMA was immobilized onto the CM5 dextran chip and various VHH concentration (20-500 nM) were passed over the sensor chip.
# [4] = biological target: T12, BCMA_B18x Ile22_Tyr40 (C37S); test: yeast cell ELISA, sample BCMA_B18x Ile22_Tyr40 (C37S)
# Procedure: as §1, §2
# [5] = biological target: T13, BCMA_B20x Arg27_Ala43 (C41S); test: yeast cell ELISA, sample BCMA_B20x Arg27_Ala43 (C41S)
# Procedure: as §1, §2
# [6] = biological target: T14, BCMA_B22x Arg27_Tyr40 (C37S); test: yeast cell ELISA, sample BCMA_B22x Arg27_Tyr40 (C37S)
# Procedure: as §1, §2
Binder,OD450 [1],OD450 (BCMA_B2x Gly6_Ala54),OD450 (BCMA_B6x Met1_Ala43),OD450 (BCMA_B7x Met1_Tyr40),binding result (BCMA_B9x Met1_Asp15),OD450 [2],binding result [3],binding result (BCMA_B17x Ile22_Tyr40),binding result (BCMA_B19x Arg27_Ala43),binding result (BCMA_B21x Arg27_Tyr40),Kd (hBCMA-ECD-FC5VHH),koff (hBCMA-ECD-FC5VHH),kon (hBCMA-ECD-FC5VHH),binding result [4],binding result [5],binding result [6],OD450 [3]
"hBCMA-A6 (VHH, single biotin on the C-terminal AviTag, also called VHH-A6; not shown: C-terminal His tag and AviTag biotinylation signal from pMRO vector) VHH: QVQLVESGGGLVQPGGSLRLSCVASGSIFDAYNMGWYRQAPGKQRELVAAISSAGTTFYRDSVKGRFTVSRNNAKNTMYLQMDRLRPEDTAVYDCNGAPWGDAPVKVEDWGQGTQVTVSS",1.88,3.08,2.8,1.84,no binding,2.44,no binding,no binding,no binding,no binding,4.62 nM,0.0109 s⁻¹,2.36e+06 M⁻¹ s⁻¹,no binding,no binding,no binding,–
"hBCMA-VcMRo8(VF7/VF8) (VHH, single biotin on the C-terminal AviTag, also called V8; hBCMA-V8; not shown: C-terminal His tag and AviTag biotinylation signal from pMRO vector) VHH: QVQLVESGGGLVQPGGSLRLSCAASGTIFSRNALAWFRQAPGKQRELVAHITIGGTTVYKDSVKGRFTISRDNAKNTVYLQMDALKPEDTAVYYCNADPEGSWNWVRRGDYWGQGTQVTVS",2.45,2.74,2.33,2.37,no binding,2.61,no binding,no binding,no binding,no binding,0.0846 nM,0.00125 s⁻¹,1.48e+07 M⁻¹ s⁻¹,no binding,no binding,no binding,–
"hBCMA-H4 (VHH, single biotin on the C-terminal AviTag, also called VHH-H4; not shown: C-terminal His tag and AviTag biotinylation signal from pMRO vector) VHH: QVQLVESGGGLVQPGGSLRLSCAASGDSFGAYAMGWYRQAPGKQRELVAAISSAGNTFYRDSVKGRFTVSRNNAKNAMYLQMDRLKPEDTAVYQCNGAPWADEPVKVWNWGLGTQVTVSS",2.78,2.16,2.62,1.39,no binding,2.42,no binding,no binding,no binding,no binding,0.379 nM,0.000509 s⁻¹,1.34e+06 M⁻¹ s⁻¹,no binding,no binding,no binding,–
"hBCMA-VcMRo3 (V3) (VHH, single biotin on the C-terminal AviTag, also called hBCMA-V3; not shown: C-terminal His tag and AviTag biotinylation signal from pMRO vector) VHH: EVQLEQSGGGLVQTGDSLRLTCTIPGRASNHFVMAWFRRAPGKEREFVATRVWSGGSPYYSDSVKGRFAIAIDNAKNTAYLQMNSLKPEDTAVYYCAATKDIMSRSYDYWGLGTQVTVSS",3.09,2.53,2.65,1.62,no binding,2.74,–,no binding,no binding,no binding,0.564 nM,0.000239 s⁻¹,424000 M⁻¹ s⁻¹,no binding,no binding,no binding,2.08
"hBCMA-E7 (VHH, single biotin on the C-terminal AviTag, Llama VHH made in E. coli BL21(DE3), IMAC purified, monomeric SEC fraction used; also called VHH-E7; VHH # 1-B1; not shown: C-terminal His tag and AviTag biotinylation signal from pMRO vector) VHH: QVQLVESGGGLVQTGDSLRLACTISGRATDHFVMAWFRRAPGKEREYVATRVWSGGSPYYLDSVKGRFAIAIDNAKNTAYLQMNNLKPEDTAVYYCAATKDIMSRSYDYWGLGTQVTVSS",2.52,2.92,2.19,2.64,no binding,3.57,–,no binding,no binding,no binding,0.0462 nM,0.000179 s⁻¹,3.88e+06 M⁻¹ s⁻¹,no binding,no binding,no binding,2.39
"hBCMA-H2 (VHH, single biotin on the C-terminal AviTag, also called VHH-H2; not shown: C-terminal His tag and AviTag biotinylation signal from pMRO vector) VHH: QVKAEESGGGLVRPGDSLRLTCTISGRTSNNFVMAWFRRTPGKEREYVATRVWSGSTPYYHDSVKGRFTISIDDDKNTAYLQMNSLKPEDTAVYYCAATKDIMSRSYDYWGLGTQVTVSS",2.12,2.92,2.41,3.02,no binding,3.5,–,no binding,no binding,no binding,0.0801 nM,0.000343 s⁻¹,4.28e+06 M⁻¹ s⁻¹,no binding,no binding,no binding,2.82
